{"source": "paper PMC8643667", "about": "“TRF2 promotes dynamic and stepwise looping of POT1 bound telomeric overhang”", "target": "T1, POT1 (human, UniProt Q9NUX5 1-634)", "T1 sequence": "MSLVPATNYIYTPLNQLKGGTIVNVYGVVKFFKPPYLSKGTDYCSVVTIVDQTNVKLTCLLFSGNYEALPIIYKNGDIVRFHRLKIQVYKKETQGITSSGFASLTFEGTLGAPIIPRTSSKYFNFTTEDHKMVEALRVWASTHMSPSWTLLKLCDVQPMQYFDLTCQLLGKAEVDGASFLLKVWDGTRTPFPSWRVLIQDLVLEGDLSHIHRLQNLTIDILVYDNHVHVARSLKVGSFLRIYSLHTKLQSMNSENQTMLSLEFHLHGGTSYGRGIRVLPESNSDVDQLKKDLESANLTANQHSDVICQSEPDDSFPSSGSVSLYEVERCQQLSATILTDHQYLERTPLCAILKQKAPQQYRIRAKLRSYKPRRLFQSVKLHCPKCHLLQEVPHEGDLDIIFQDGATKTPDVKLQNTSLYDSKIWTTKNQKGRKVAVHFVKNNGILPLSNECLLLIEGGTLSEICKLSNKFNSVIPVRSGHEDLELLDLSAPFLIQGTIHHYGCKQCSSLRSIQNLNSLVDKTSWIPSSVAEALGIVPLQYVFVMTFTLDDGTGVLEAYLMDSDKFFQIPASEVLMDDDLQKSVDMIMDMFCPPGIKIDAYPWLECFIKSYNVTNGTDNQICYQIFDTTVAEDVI", "test": "smFRET; FRET to 0.45; 10 mM Tris-HCl pH 7.5, 100 mM NaCl, 10% glycerol, oxygen scavenging system (trolox, glucose, glucose oxidase, catalase), ~23 C", "conditions": "protein: recombinant; label: 3'Cy3 strand 1; Cy5 and 3'biotin strand 2; 3' overhang 24 nt; 18 bp duplex", "data": [{"binder": "T6(TTAGGG)2T6 overhang (mixed) DNA 1: TGGCGACGGCAGCGAGGCTTTTTTTTAGGGTTAGGGTTTTTT DNA 2: GCCTCGCTGCCGTCGCCA", "values": [{"measurement": "binding result", "result": "binds"}]}]}
